Experimental data: the supplement of paper PMC7877785
± gives the uncertainty stated by the source.

Test: self-splicing fitness, log relative to wild type (ln ratio); higher = more splicing; Tetrahymena group I intron in knt gene, E. coli kanamycin selection, DiMSum; sequences stand for … in CUCUCU…GGAGGGAAAAGUUAUCAGGCAUGCACCUGGUAGCUAGUCUUUAAACCAAUAGAUUGCAUCGGUUUAAAAGGCAAGACCGUCAAAUUGCGGGAAAGGGGUCAACAGCCGUUCAGUACCAAGUCUCAGGGGAAACUUUGAGAUGGCCUUGCAAAGGGUAUGGUAAUAAGCUGACGGACAUGGUCCUAACCACGCAGCCAAGUCCUAAGUCAACAGAUCUUCUGUUGAUAUGGAUGCAGUUCACAGACUAAAUGUCGGUCGGGGAAGAUGUAUUCUUCUCAUAAGAUAUAGUCGGACCUCUCCUUAAUGGGAGCUAGCGGAUGAAGUGAUGCAACACUGGAGCCGCUGGGAACUAAUUUGUAUGCGAAAGUAUAUUGAUUAGUUUUGGAGUACUCGUGGUCG
Procedure, shortened: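 Colonies from six replicate transformations of E. coli BL21(DE3) were pooled and amplicon-sequenced on an Illumina HiSeq 2500. The library placed an intron with all eight P1ex-region nucleotides randomised inside the knt kanamycin-resistance gene on pET-22b(+), and cells grew overnight at 37°C or 30°C on LB agar with or without 25 μg/mL kanamycin (plus 100 μg/mL carbenicillin, 50 μM IPTG, 0.2% rhamnose). Fitness is the DiMSum error-weighted combination of wild-type-normalised replicate fold changes, kanamycin versus none.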

Sequence | self-splicing fitness (ln) (30 °C) | self-splicing fitness (ln) (37 °C)
GAUAAGCAAUAUUACGGACA | -1.39 ± 0.09 | -0.559 ± 0.088
GAUAAGCAAUAUUACGGACU | -0.638 ± 0.07 | -0.289 ± 0.094
GAUAAGCAAUAUUACGGCAA | -0.963 ± 0.14 | -0.998 ± 0.16
GAUAAGCAAUAUUACGGCCA | -1.15 ± 0.18 | 0.818 ± 0.17
GAUAAGCAAUAUUACGGGAC | -2.82 ± 0.13 | -1.18 ± 0.1
GAUAAGCAAUAUUACGGGAU | -2.39 ± 0.18 | -1.89 ± 0.19
GAUAAGCAAUAUUACGUAAU | -1.78 ± 0.073 | -0.923 ± 0.1
GAUAAGCAAUAUUACGUAGU | -2.09 ± 0.083 | -0.957 ± 0.091
GAUAAGCAAUAUUACGUAUA | -1.81 ± 0.12 | -1.01 ± 0.11
GAUAAGCAAUAUUACGUAUU | -4.03 ± 0.37 | -1.78 ± 0.21
GAUAAGCAAUAUUACGUCAA | -1.66 ± 0.16 | -1.39 ± 0.14
GAUAAGCAAUAUUACGUGAA | -2.2 ± 0.13 | -1.63 ± 0.15
GAUAAGCAAUAUUACGUGCG | -0.71 ± 0.083 | -0.166 ± 0.13
GAUAAGCAAUAUUACGUUCC | -3.71 ± 0.28 | -2.94 ± 0.24
GAUCAGCAAUAUUACGAAGC | -1.74 ± 0.078 | -0.845 ± 0.086
GAUCAGCAAUAUUACGAAUU | -1.21 ± 0.065 | -0.655 ± 0.083
GAUCAGCAAUAUUACGACGG | -2.63 ± 0.28 | -0.19 ± 0.25
GAUCAGCAAUAUUACGACGU | 0.142 ± 0.076 | 0.682 ± 0.089
GAUCAGCAAUAUUACGAGUU | -1.26 ± 0.094 | -0.882 ± 0.12
GAUCAGCAAUAUUACGAUAC | -1.08 ± 0.078 | -0.733 ± 0.12
GAUCAGCAAUAUUACGCAAA | -0.978 ± 0.17 | -0.367 ± 0.16
GAUCAGCAAUAUUACGCAGG | -3.3 ± 0.29 | -1.09 ± 0.12
GAUCAGCAAUAUUACGCGGC | -3.7 ± 0.37 | -2.89 ± 0.4
GAUCAGCAAUAUUACGCGUA | -0.39 ± 0.095 | -0.283 ± 0.14

Sequence | self-splicing fitness (ln) (30 °C) | self-splicing fitness (ln) (37 °C)
GAUCAGCAAUAUUACGGAUG | -1.19 ± 0.068 | -0.813 ± 0.076
GAUCAGCAAUAUUACGGCAG | -3.4 ± 0.33 | -2.34 ± 0.27
GAUCAGCAAUAUUACGGCCU | -1.13 ± 0.22 | -1.18 ± 0.23
GAUCAGCAAUAUUACGGCUA | -0.263 ± 0.099 | 0.0701 ± 0.11
GAUCAGCAAUAUUACGGCUG | -3.29 ± 0.19 | -1.12 ± 0.16
GAUCAGCAAUAUUACGGUAC | -0.39 ± 0.11 | -0.884 ± 0.12
GAUCAGCAAUAUUACGGUCG | -1.42 ± 0.092 | -0.484 ± 0.088
GAUCAGCAAUAUUACGUAUA | -0.819 ± 0.091 | -0.975 ± 0.088
GAUCAGCAAUAUUACGUAUU | -2.69 ± 0.12 | -1.38 ± 0.12
GAUCAGCAAUAUUACGUCUU | 0.24 ± 0.076 | 0.0656 ± 0.085
GAUCAGCAAUAUUACGUGGG | -3.21 ± 0.13 | -1.7 ± 0.11
GAUCAGCAAUAUUACGUUUG | -1.53 ± 0.058 | 0.151 ± 0.08
GAUGAGCAAUAUUACGACAA | -2.95 ± 0.31 | –
GAUGAGCAAUAUUACGACGC | -0.267 ± 0.15 | 0.408 ± 0.23
GAUGAGCAAUAUUACGAGGA | -2.63 ± 0.17 | -2.89 ± 0.15
GAUGAGCAAUAUUACGAUGG | -1.57 ± 0.13 | -2 ± 0.25
GAUGAGCAAUAUUACGCACG | -3.63 ± 0.32 | -2.25 ± 0.3
GAUGAGCAAUAUUACGCAUU | – | -1.96 ± 0.39
GAUGAGCAAUAUUACGCGCC | -3.17 ± 0.3 | -2.26 ± 0.2
GAUGAGCAAUAUUACGGACG | – | -1.49 ± 0.26
GAUGAGCAAUAUUACGGCAG | – | -2.52 ± 0.41
GAUGAGCAAUAUUACGGCGA | -2.19 ± 0.17 | -1.38 ± 0.13
GAUGAGCAAUAUUACGGGAA | -3.01 ± 0.23 | -3.7 ± 0.42
GAUGAGCAAUAUUACGUAUA | – | -1.82 ± 0.35

Sequence | self-splicing fitness (ln) (30 °C) | self-splicing fitness (ln) (37 °C)
GAUGAGCAAUAUUACGUGAG | -2.88 ± 0.23 | -2.06 ± 0.28
GAUUAGCAAUAUUACGAAAG | -2.38 ± 0.25 | -0.574 ± 0.23
GAUUAGCAAUAUUACGAAGA | -1.25 ± 0.43 | -0.415 ± 0.38
GAUUAGCAAUAUUACGAAGG | -3.53 ± 0.43 | -1.8 ± 0.35
GAUUAGCAAUAUUACGAUUC | -2.58 ± 0.22 | -1.45 ± 0.2
GAUUAGCAAUAUUACGCGCG | -1.03 ± 0.097 | -0.745 ± 0.12
GAUUAGCAAUAUUACGCGGA | -3.19 ± 0.26 | -1.55 ± 0.15
GAUUAGCAAUAUUACGGAAU | -2.71 ± 0.15 | -2.11 ± 0.17
GAUUAGCAAUAUUACGGAUC | -2.71 ± 0.4 | -2.18 ± 0.32
GAUUAGCAAUAUUACGGGGU | -3.45 ± 0.18 | -2.11 ± 0.13
GAUUAGCAAUAUUACGGUAG | -2.5 ± 0.15 | -1.21 ± 0.12
GAUUAGCAAUAUUACGGUAU | -1.75 ± 0.12 | -1.14 ± 0.14
GAUUAGCAAUAUUACGGUUU | -0.946 ± 0.083 | 0.231 ± 0.11
GAUUAGCAAUAUUACGUAUG | -1.75 ± 0.065 | -1.33 ± 0.087
GAUUAGCAAUAUUACGUCAA | -2.6 ± 0.41 | -0.886 ± 0.22
GAUUAGCAAUAUUACGUGCA | -1.7 ± 0.14 | -0.0754 ± 0.09
GAUUAGCAAUAUUACGUUAC | -2.63 ± 0.19 | -2.53 ± 0.23
GAUUAGCAAUAUUACGUUCC | -2.41 ± 0.3 | -1.59 ± 0.19
GCAAAGCAAUAUUACGAAGU | -3.24 ± 0.16 | -1.22 ± 0.11
GCAAAGCAAUAUUACGACUC | -0.773 ± 0.13 | 0.0939 ± 0.11
GCAAAGCAAUAUUACGACUU | -0.0792 ± 0.067 | -0.0895 ± 0.087
GCAAAGCAAUAUUACGAGAA | -3 ± 0.2 | -1.66 ± 0.18
GCAAAGCAAUAUUACGAGUG | -2.57 ± 0.097 | -0.371 ± 0.092
GCAAAGCAAUAUUACGAUCC | -0.0105 ± 0.12 | -0.518 ± 0.13

Sequence | self-splicing fitness (ln) (30 °C) | self-splicing fitness (ln) (37 °C)
GCAAAGCAAUAUUACGCAAU | -3.41 ± 0.13 | -1 ± 0.092
GCAAAGCAAUAUUACGCAGU | -3.23 ± 0.28 | -2.42 ± 0.23
GCAAAGCAAUAUUACGCCAU | -2.9 ± 0.17 | -1.6 ± 0.22
GCAAAGCAAUAUUACGCCCU | -0.279 ± 0.2 | 0.0848 ± 0.16
GCAAAGCAAUAUUACGCGCC | -2.2 ± 0.26 | -2.09 ± 0.36
GCAAAGCAAUAUUACGCUGG | -2.41 ± 0.13 | -0.395 ± 0.14
GCAAAGCAAUAUUACGGAGU | -3.58 ± 0.17 | -2.42 ± 0.21
GCAAAGCAAUAUUACGGGUU | -2.11 ± 0.12 | -1.67 ± 0.16
GCAAAGCAAUAUUACGGUUA | -0.938 ± 0.08 | -0.429 ± 0.076
GCAAAGCAAUAUUACGUAGC | -4.47 ± 0.46 | -1.71 ± 0.22
GCAAAGCAAUAUUACGUCAA | -3.16 ± 0.19 | -2.02 ± 0.14
GCAAAGCAAUAUUACGUCGG | -3.15 ± 0.19 | -1.22 ± 0.13
GCAAAGCAAUAUUACGUGCU | -3.46 ± 0.12 | -2.73 ± 0.17
GCAAAGCAAUAUUACGUUAU | -1.73 ± 0.084 | -1.54 ± 0.092
GCACAGCAAUAUUACGACAC | -0.345 ± 0.078 | 0.29 ± 0.093
GCACAGCAAUAUUACGAGAA | -2.66 ± 0.25 | -0.185 ± 0.12
GCACAGCAAUAUUACGAGGA | -2.11 ± 0.096 | -1.23 ± 0.099
GCACAGCAAUAUUACGAUAC | -1.21 ± 0.074 | -0.488 ± 0.084
GCACAGCAAUAUUACGAUAG | -1.91 ± 0.087 | -1.14 ± 0.1
GCACAGCAAUAUUACGAUGA | -0.231 ± 0.076 | -0.14 ± 0.078
GCACAGCAAUAUUACGAUGG | -0.945 ± 0.072 | -1.06 ± 0.081
GCACAGCAAUAUUACGAUUG | -2.27 ± 0.077 | -0.657 ± 0.083
GCACAGCAAUAUUACGCAAA | -1.72 ± 0.15 | -0.898 ± 0.16
GCACAGCAAUAUUACGCAGU | -1.65 ± 0.12 | -1.32 ± 0.13
